# Laboratory results as given in patent US20250043302A1, “MUTATED HYDROXYPHENYLPYRUVATE DIOXYGENASE POLYPEPTIDE, AND CODING GENE AND USE THEREOF” (BEIJING DABEINONG BIOTECHNOLOGY CO., LTD., priority 2021, published 2025).
# Columns and labels:
# Type in all cases: in vivo
# [1] = tested on: Arabidopsis thaliana T1 plants; assay: Topramezone tolerance of transgenic Arabidopsis thaliana T1 plants (spray, bleached leaf area grade, damage score); conditions: 7 DAT, Table 4; for Classification and statistics of the grade of pesticide damage: Grade 0 / Classification and statistics of the grade of pesticide damage: Grade 1 / Classification and statistics of the grade of pesticide damage: Grade 2 / Classification and statistics of the grade of pesticide damage: Grade 3: number of plants; for Scores: pesticide damage score 0-100
# Method in brief: (§1)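 Damage graded 0–3 from the proportion of bleached leaf area 7 days after spraying. Plants were glufosinate-selected T1 lines, 18 days after sowing, plus vector and wild-type controls. Rates: mesotrione 52.5–420, isoxaflutole 35–280, topramezone 25–200 g ai/ha, with water (0×).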
# [2] = tested on: Arabidopsis thaliana T1 plants; assay: Isoxaflutole tolerance of transgenic Arabidopsis thaliana T1 plants (spray, bleached leaf area grade, damage score); design: Scores (pesticide damage): scale not given here; conditions: spray, Arabidopsis thaliana T1 plants; for Classification and statistics of the grade of pesticide damage: Grade 0 (number of plants) / Classification and statistics of the grade of pesticide damage: Grade 1 (number of plants) / Classification and statistics of the grade of pesticide damage: Grade 2 (number of plants) / Classification and statistics of the grade of pesticide damage: Grade 3 (number of plants): 16 plants
# Method in brief: as §1
# [3] = tested on: Arabidopsis thaliana T1 plants; assay: Mesotrione tolerance of transgenic Arabidopsis thaliana T1 plants (spray, bleached leaf area grade, damage score); design: Scores: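 damage score 0-100 computed as Σ(N×S)/(T×M)×100 over grades 0-3 with higher meaning more damage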; conditions: Arabidopsis thaliana T1 plants; for Grade 0 (classification and statistics of the grade of pesticide damage; number of plants) / Grade 1 (classification and statistics of the grade of pesticide damage; number of plants) / Grade 2 (classification and statistics of the grade of pesticide damage; number of plants) / Grade 3 (classification and statistics of the grade of pesticide damage; number of plants): 16 plants
# Method in brief: as §1
# [4] = isoxaflutole 35 g ai/ha (0.5x field concentration)
# [5] = isoxaflutole 70 g ai/ha (1x field concentration)
Molecule,Classification and statistics of the grade of pesticide damage: Grade 0 ([1]; topramezone 25 g ai/ha (1×)),Classification and statistics of the grade of pesticide damage: Grade 1 ([1]; topramezone 25 g ai/ha (1×)),Classification and statistics of the grade of pesticide damage: Grade 2 ([1]; topramezone 25 g ai/ha (1×)),Classification and statistics of the grade of pesticide damage: Grade 3 ([1]; topramezone 25 g ai/ha (1×)),Classification and statistics of the grade of pesticide damage: Grade 0 ([1]; topramezone 100 g ai/ha (4×)),Classification and statistics of the grade of pesticide damage: Grade 1 ([1]; topramezone 100 g ai/ha (4×)),Classification and statistics of the grade of pesticide damage: Grade 2 ([1]; topramezone 100 g ai/ha (4×)),Classification and statistics of the grade of pesticide damage: Grade 3 ([1]; topramezone 100 g ai/ha (4×)),Scores ([1]; topramezone 25 g ai/ha (1×)),Scores ([1]; topramezone 100 g ai/ha (4×)),Resistance evaluation ([1]; topramezone 25 g ai/ha (1×)),Resistance evaluation ([1]; topramezone 100 g ai/ha (4×)),"Resistance evaluation [2, 4]","Scores (pesticide damage) [2, 4]","Classification and statistics of the grade of pesticide damage: Grade 0 (number of plants) [2, 4]","Classification and statistics of the grade of pesticide damage: Grade 1 (number of plants) [2, 4]","Classification and statistics of the grade of pesticide damage: Grade 2 (number of plants) [2, 4]","Classification and statistics of the grade of pesticide damage: Grade 3 (number of plants) [2, 4]","Resistance evaluation [2, 5]","Scores (pesticide damage) [2, 5]",further results
"BnHPPDm-F372A-02: nucleotide sequence encoding Brassica napus HPPD with F372A; vector DBN11743 (nucleic acid, BnHPPDm-F372A-02 Nucleotide Sequence, vector DBN11743) DNA: ATGGGACATGAAAACGCGGCAGTGTGTGAAACTCAACAACATGATGACGCCGCCTCCCCGGGGTTTAAACTTGTCGGGTTCTCAAAATTTGTTAGGAAGAATCCAAAGTCTGACAAGTTCAAGGTGAAACGCTTCCACCACATCGAGTTCTGGTGCGGGGATGCAACAAATGTTTCACGCCGCTTTTCATGGGGACTAGGAATGAGGTTTAGCGCAAAGAGTGATCTCTCCACTGGTAATATGGTTCATGCGAGCTACTTGCTCACATCTGGAGACCTGAGATTCCTCTTCACCGCACCATATTCTCCCTCCCTGTCAGCTGGTGAAGCTCAGCCTTCAGCAACTGCAAGTATCCCTTCGTTTGATCATGCATCGTGCAGGTCTTTCTTCAGTTCACATGGACTCGGCGTCAGAGCAGTAGCGATCGAAGTAGAGGATGCTGAATCAGCTTTCTCCATATCTGTCGCCAACGGCGCGGTGCCTTCTTCTCCACCAAACGTCTTGAATGGTGCTGTTACCATTGCTGAGGTGAAGCTGTACGGAGATGTTGTTTTAAGATATGTTTCATATTACAATGGGACCGTTTCTTTTCTTCCCGGCTTTGAATCTGTTGATGATACTTCTTCCTTCCCTCTTGATTATGGGATCAGGCGGCTGGACCACGCCGTCGGCAACGTGCCGGAGTTAGGTCCTGCTTTGACATATCTTGCCGGCTTCACTGGATTCCATCAATTTGCAGAGTTTACGGCTGACGACGTGGGGACCGCGGAGAGTGGGCTGAACTCAGCAGTCTTGGCCAACAATGATGAAATGGTGCTCCTCCCCATCAATGAACCTGTGCATGGAACAAAGAGAAAGTCGCAGATTCAAACATTTTTAGAGCACAATGAGGGAGCTGGGCTACAGCACCTCGCATTGATGTCAGAAGATATTTTTCGAACGTTGAGGGAGATGCGGAAACGATCTGGTGTAGGCGGCTTTGACTTCATGCCATCCCCTCCGCCAACCTACTACAAGAACCTGAAGAAGAGGGTTGGAGACGTCCTTTCCGAGGAGCAAATTGAAGAATGTGAGGAGCTTGGAATTCTGGTGGACAGAGATGATCAAGGAACACTACTTCAGATCGCCACAAAACCATTGGGCGACAGGCCAACGATATTCATTGAGATCATTCAGCGCGTTGGATGCATGAAGCGTGATGAGGAAGGGAAGGTCTACCAGAGTGGCGGTTGTGGTGGATTTGGAAAAGGAAATTTTTCTGAGCTGTTCAAAAGCATAGAAGAGTATGAGAAAACATTGGAGGCCAAGCAGCTTGTTGGTTGA",0,4,12,0,0,0,0,16,58,100,poorly,non-resistant (non-resistant plants (scores 68-100)),Poorly,52,0,7,9,0,Non-resistant,100,"Classification and statistics of the grade of pesticide damage: Grade 0 (number of plants) [2, 5]: 0; Classification and statistics of the grade of pesticide damage: Grade 1 (number of plants) [2, 5]: 0; Classification and statistics of the grade of pesticide damage: Grade 2 (number of plants) [2, 5]: 0; Classification and statistics of the grade of pesticide damage: Grade 3 (number of plants) [2, 5]: 16; Resistance evaluation ([3]; mesotrione 52.5 g ai/ha): Poorly resistant; Scores ([3]; mesotrione 52.5 g ai/ha): 63; Grade 0 (classification and statistics of the grade of pesticide damage; number of plants) ([3]; mesotrione 52.5 g ai/ha): 0; Grade 1 (classification and statistics of the grade of pesticide damage; number of plants) ([3]; mesotrione 52.5 g ai/ha): 4; Grade 2 (classification and statistics of the grade of pesticide damage; number of plants) ([3]; mesotrione 52.5 g ai/ha): 10; Grade 3 (classification and statistics of the grade of pesticide damage; number of plants) ([3]; mesotrione 52.5 g ai/ha): 2; Resistance evaluation ([3]; mesotrione 105 g ai/ha): Non-resistant; Scores ([3]; mesotrione 105 g ai/ha): 100; Grade 0 (classification and statistics of the grade of pesticide damage; number of plants) ([3]; mesotrione 105 g ai/ha): 0; Grade 1 (classification and statistics of the grade of pesticide damage; number of plants) ([3]; mesotrione 105 g ai/ha): 0; Grade 2 (classification and statistics of the grade of pesticide damage; number of plants) ([3]; mesotrione 105 g ai/ha): 0; Grade 3 (classification and statistics of the grade of pesticide damage; number of plants) ([3]; mesotrione 105 g ai/ha): 16"
"BnHPPDm-F383W-02: nucleotide sequence encoding Brassica napus HPPD with F383W; vector DBN11744 (nucleic acid, BnHPPDm-F383W-02 Nucleotide Sequence, vector DBN11744) DNA: ATGGGACATGAAAACGCGGCAGTGTGTGAAACTCAACAACATGATGACGCCGCCTCCCCGGGGTTTAAACTTGTCGGGTTCTCAAAATTTGTTAGGAAGAATCCAAAGTCTGACAAGTTCAAGGTGAAACGCTTCCACCACATCGAGTTCTGGTGCGGGGATGCAACAAATGTTTCACGCCGCTTTTCATGGGGACTAGGAATGAGGTTTAGCGCAAAGAGTGATCTCTCCACTGGTAATATGGTTCATGCGAGCTACTTGCTCACATCTGGAGACCTGAGATTCCTCTTCACCGCACCATATTCTCCCTCCCTGTCAGCTGGTGAAGCTCAGCCTTCAGCAACTGCAAGTATCCCTTCGTTTGATCATGCATCGTGCAGGTCTTTCTTCAGTTCACATGGACTCGGCGTCAGAGCAGTAGCGATCGAAGTAGAGGATGCTGAATCAGCTTTCTCCATATCTGTCGCCAACGGCGCGGTGCCTTCTTCTCCACCAAACGTCTTGAATGGTGCTGTTACCATTGCTGAGGTGAAGCTGTACGGAGATGTTGTTTTAAGATATGTTTCATATTACAATGGGACCGTTTCTTTTCTTCCCGGCTTTGAATCTGTTGATGATACTTCTTCCTTCCCTCTTGATTATGGGATCAGGCGGCTGGACCACGCCGTCGGCAACGTGCCGGAGTTAGGTCCTGCTTTGACATATCTTGCCGGCTTCACTGGATTCCATCAATTTGCAGAGTTTACGGCTGACGACGTGGGGACCGCGGAGAGTGGGCTGAACTCAGCAGTCTTGGCCAACAATGATGAAATGGTGCTCCTCCCCATCAATGAACCTGTGCATGGAACAAAGAGAAAGTCGCAGATTCAAACATTTTTAGAGCACAATGAGGGAGCTGGGCTACAGCACCTCGCATTGATGTCAGAAGATATTTTTCGAACGTTGAGGGAGATGCGGAAACGATCTGGTGTAGGCGGCTTTGACTTCATGCCATCCCCTCCGCCAACCTACTACAAGAACCTGAAGAAGAGGGTTGGAGACGTCCTTTCCGAGGAGCAAATTGAAGAATGTGAGGAGCTTGGAATTCTGGTGGACAGAGATGATCAAGGAACACTACTTCAGATCTTCACAAAACCATTGGGCGACAGGCCAACGATATGGATTGAGATCATTCAGCGCGTTGGATGCATGAAGCGTGATGAGGAAGGGAAGGTCTACCAGAGTGGCGGTTGTGGTGGATTTGGAAAAGGAAATTTTTCTGAGCTGTTCAAAAGCATAGAAGAGTATGAGAAAACATTGGAGGCCAAGCAGCTTGTTGGTTGA",0,3,9,4,0,0,0,16,69,100,non-resistant (non-resistant plants (scores 68-100)),non-resistant (non-resistant plants (scores 68-100)),Non-resistant,94,0,0,3,13,Non-resistant,100,"Classification and statistics of the grade of pesticide damage: Grade 0 (number of plants) [2, 5]: 0; Classification and statistics of the grade of pesticide damage: Grade 1 (number of plants) [2, 5]: 0; Classification and statistics of the grade of pesticide damage: Grade 2 (number of plants) [2, 5]: 0; Classification and statistics of the grade of pesticide damage: Grade 3 (number of plants) [2, 5]: 16; Resistance evaluation ([3]; mesotrione 52.5 g ai/ha): Non-resistant; Scores ([3]; mesotrione 52.5 g ai/ha): 100; Grade 0 (classification and statistics of the grade of pesticide damage; number of plants) ([3]; mesotrione 52.5 g ai/ha): 0; Grade 1 (classification and statistics of the grade of pesticide damage; number of plants) ([3]; mesotrione 52.5 g ai/ha): 0; Grade 2 (classification and statistics of the grade of pesticide damage; number of plants) ([3]; mesotrione 52.5 g ai/ha): 0; Grade 3 (classification and statistics of the grade of pesticide damage; number of plants) ([3]; mesotrione 52.5 g ai/ha): 16; Resistance evaluation ([3]; mesotrione 105 g ai/ha): Non-resistant; Scores ([3]; mesotrione 105 g ai/ha): 100; Grade 0 (classification and statistics of the grade of pesticide damage; number of plants) ([3]; mesotrione 105 g ai/ha): 0; Grade 1 (classification and statistics of the grade of pesticide damage; number of plants) ([3]; mesotrione 105 g ai/ha): 0; Grade 2 (classification and statistics of the grade of pesticide damage; number of plants) ([3]; mesotrione 105 g ai/ha): 0; Grade 3 (classification and statistics of the grade of pesticide damage; number of plants) ([3]; mesotrione 105 g ai/ha): 16"
